Among the data in patent US20080176247A1 (INDUSTRIAL TECHNOLOGY RESEARCH INSTITUTE, published 2008) are Kd, koff and kon values, retold here.

The target in the assay is T1, purified recombinant extracellular domain of EGF receptor (EGFR-ECD; Research Diagnostics, Inc.) (UniProt P00533 25-645, limits assumed).
T1 construct: extracellular domain; Bought protein
The assay can be described thus: SPR (BIAcore X), EGFR-ECD immobilized on C1 chip, 1:1 Langmuir fit. The procedure: Each antibody was injected at indicated concentrations and flowed over a surface chip with immobilized EGFR extracellular domain at a flow rate of 10 μl/min.
The surface was regenerated by injection of 5 μl of 10 mM glycine-HCl, pH 3.5. Sensorgrams were obtained at each concentration and were evaluated using the program, BIA Evaluation 3.2. Binding data were titled with a 1:1 Langmuir binding model to calculate the equilibrium dissociation constant, KD, which was defined as the ratio of dissociation rate (koff)/association rate (kₒₙ).
(In SPR one partner is held on a chip, and binding of the other changes the refractive index at the surface.)

B1: erb_scFv (scFv, not shown: small tags and cut ends)
scFv: MAEVQLLESGGGLVQPGGSLRLSCAASGFTFSSYAMSWVRQAPGKGLEWVSDIGASGSATSYADSVKGRFTISRDNSKNTLYLQMNSLRAEDTAVYYCAKSTTTFDYWGQGTLVTVSSGGGGSGGGGSGGGGSTDIQMTQSPSSLSASVGDRVTITCRASQSISSYLNWYQQKPGKAPKLLIYDASALQSGVPSRFSGSGSGTDFTLTISSLQPEDFATYYCQQYADYPTTFGQGTKVEIKR
notes: Made in NS0 cells for the SPR work
In general, Kd refers to the constant that tells how readily two partners part at equilibrium. In general, koff refers to the rate constant with which the complex falls apart. As a reminder, the kon is a measure of how fast the partners come together. For the molecule B1, the Kd is 4.96 µM, the koff is 0.0741 s⁻¹ and the kon was determined as 15000 M⁻¹ s⁻¹.

B2: erb_scFv-Fc (Fc fusion)
chain: MAEVQLLESGGGLVQPGGSLRLSCAASGFTFSSYAMSWVRQAPGKGLEWVSDIGASGSATSYADSVKGRFTISRDNSKNTLYLQMNSLRAEDTAVYYCAKSTTTFDYWGQGTLVTVSSGGGGSGGGGSGGGGSTDIQMTQSPSSLSASVGDRVTITCRASQSISSYLNWYQQKPGKAPKLLIYDASALQSGVPSRFSGSGSGTDFTLTISSLQPEDFATYYCQQYADYPTTFGQGTKVEIKR
notes: not shown: Fc region
For the molecule B2, the equilibrium dissociation constant (Kd) was 0.104 µM, the koff was determined as 0.00944 s⁻¹ and the kon is 90900 M⁻¹ s⁻¹.
